# Test results taken from article PMC10747188.
# T1: MFSD2a, endogenous on human cell lines (human (endogenous in HEK293T, Jurkat, HUVEC, U87-MG)) (UniProt Q8NA29)
# T1 sequence: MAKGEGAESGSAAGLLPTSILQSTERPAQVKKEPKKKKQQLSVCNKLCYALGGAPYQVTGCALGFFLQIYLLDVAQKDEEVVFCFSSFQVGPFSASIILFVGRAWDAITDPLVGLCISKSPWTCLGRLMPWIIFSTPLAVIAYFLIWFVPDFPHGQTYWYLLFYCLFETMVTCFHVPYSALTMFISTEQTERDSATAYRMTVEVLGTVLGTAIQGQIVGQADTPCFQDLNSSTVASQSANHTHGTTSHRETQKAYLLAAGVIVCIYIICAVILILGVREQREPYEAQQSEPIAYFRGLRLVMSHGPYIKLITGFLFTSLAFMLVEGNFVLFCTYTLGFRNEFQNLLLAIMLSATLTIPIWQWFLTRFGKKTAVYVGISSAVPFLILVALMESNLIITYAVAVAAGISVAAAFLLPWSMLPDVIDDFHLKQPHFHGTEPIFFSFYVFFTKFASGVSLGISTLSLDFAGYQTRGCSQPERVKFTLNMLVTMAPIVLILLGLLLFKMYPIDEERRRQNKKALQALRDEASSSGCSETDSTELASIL
# T2: MFSD2a N227Q-V5, expressed in HeLa cells (UniProt Q8NA29)
# T2 sequence: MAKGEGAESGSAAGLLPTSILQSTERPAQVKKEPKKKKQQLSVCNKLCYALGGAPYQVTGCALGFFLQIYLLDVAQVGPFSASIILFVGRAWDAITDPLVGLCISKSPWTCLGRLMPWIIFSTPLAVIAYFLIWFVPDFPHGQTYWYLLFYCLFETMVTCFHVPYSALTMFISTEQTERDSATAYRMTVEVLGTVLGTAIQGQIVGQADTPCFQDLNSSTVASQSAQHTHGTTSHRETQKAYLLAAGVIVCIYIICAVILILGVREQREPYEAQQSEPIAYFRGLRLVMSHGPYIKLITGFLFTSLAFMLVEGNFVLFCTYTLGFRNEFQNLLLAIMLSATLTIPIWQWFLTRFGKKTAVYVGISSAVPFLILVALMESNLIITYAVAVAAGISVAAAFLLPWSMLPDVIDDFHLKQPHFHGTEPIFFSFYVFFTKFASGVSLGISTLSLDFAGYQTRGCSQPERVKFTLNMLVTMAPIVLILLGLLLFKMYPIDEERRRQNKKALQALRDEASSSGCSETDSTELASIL
# T3: MFSD2a N217Q-V5, expressed in HeLa cells (UniProt Q8NA29)
# T3 sequence: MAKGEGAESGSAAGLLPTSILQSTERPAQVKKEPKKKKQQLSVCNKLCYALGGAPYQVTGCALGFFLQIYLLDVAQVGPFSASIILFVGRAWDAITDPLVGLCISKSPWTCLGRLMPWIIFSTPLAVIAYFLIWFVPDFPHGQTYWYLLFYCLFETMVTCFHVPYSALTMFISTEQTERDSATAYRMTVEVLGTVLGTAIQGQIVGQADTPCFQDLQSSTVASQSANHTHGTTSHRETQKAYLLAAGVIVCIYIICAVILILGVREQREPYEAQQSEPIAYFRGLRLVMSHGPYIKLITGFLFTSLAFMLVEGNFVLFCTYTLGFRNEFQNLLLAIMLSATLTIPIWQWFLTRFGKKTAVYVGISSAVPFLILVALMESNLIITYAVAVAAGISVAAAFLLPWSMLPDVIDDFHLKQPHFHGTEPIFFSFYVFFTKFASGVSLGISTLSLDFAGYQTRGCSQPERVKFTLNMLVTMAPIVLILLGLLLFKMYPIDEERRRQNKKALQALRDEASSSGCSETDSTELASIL
# Tests used:
# [1] = target: T1, MFSD2a, endogenous on human cell lines (human (endogenous in HEK293T, Jurkat, HUVEC, U87-MG))
# [2] = target: T1, MFSD2a, endogenous on human cell lines (human (endogenous in HEK293T, Jurkat, HUVEC, U87-MG)); remark: listed apart in the source
# [3] = target: T1, MFSD2a, endogenous on human cell lines (human (endogenous in HEK293T, Jurkat, HUVEC, U87-MG)); remark: listed apart in the source
# [4] = target: simian MFSD2a, endogenous on Cos-7 cells (simian (endogenous in Cos-7))
# [5] = target: T2, MFSD2a N227Q-V5, expressed in HeLa cells
# [6] = target: T3, MFSD2a N217Q-V5, expressed in HeLa cells
# [7] = luciferase infection assay in transfected HeLa cells; settings: glycan lost; control: wild-type MFSD2a
# [8] = anti-V5 Western blot of transfected cells; settings: glycan lost; control: wild-type MFSD2a
# [9] = anti-V5 immunofluorescence, confocal, Cos-7 cells; settings: glycan lost; control: wild-type MFSD2a
binder,measurement,setting,value
"Syncytin-2, expressed in HEK293T cells (cell fusion assay) (natural protein) AYRHPDFPLLEKAQQLLQSTGSPYSTNCWLCTSSSTETPGTAYPASPREWTSIEAELHISYRWDPNLKGLMRPANSLLSTVKQDFPDIRQKPPIFGPIFTNINLMGIAPICVMAKRKNGTNVGTLPSTVCNVTFTVDSNQQTYQTYTHNQFRHQPRFPKPPNITFPQGTLLDKSSRFCQGRPSSCSTRNFWFRPADYNQCLQISNLSSTAEWVLLDQTRNSLFWENKTKGANQSQTPCVQVLAGMTIATSYLGISAVSEFFGTSLTPLFHFHISTCLKTQGAFYICGQSIHQCLPSNWTGTCTIGYVTPDIFIAPGNLSLPIPIYGNSPLPRVRRAIHFIPLLAGLGILAGTGTGIAGITKASLTYSQLSKEIANNIDTMAKALTTMQEQIDSLAAVVLQNRRGLDMLTAAQGGICLALDEKCCFWVNQSGKVQDNIRQLLNQASSLRERATQGWLNWEGTWKWFSWVLPLTGPLVSLLLLLLFGPCLLNLITQFVSSRLQAIKLQTNLSAGRHPRNIQESPF",cellular fusion index of Syn-2-transfected HEK293T cells with 4 µM recombinant Gal-1 for 24 h (8.56% +/− 0.6 with PBS; 5.76% +/− 0.22 with Gal-1 and 50 mM lactose),[1],17.5%
"Syncytin-2 (Flag-tagged), on pseudotyped NL4.3 virions (natural protein) AYRHPDFPLLEKAQQLLQSTGSPYSTNCWLCTSSSTETPGTAYPASPREWTSIEAELHISYRWDPNLKGLMRPANSLLSTVKQDFPDIRQKPPIFGPIFTNINLMGIAPICVMAKRKNGTNVGTLPSTVCNVTFTVDSNQQTYQTYTHNQFRHQPRFPKPPNITFPQGTLLDKSSRFCQGRPSSCSTRNFWFRPADYNQCLQISNLSSTAEWVLLDQTRNSLFWENKTKGANQSQTPCVQVLAGMTIATSYLGISAVSEFFGTSLTPLFHFHISTCLKTQGAFYICGQSIHQCLPSNWTGTCTIGYVTPDIFIAPGNLSLPIPIYGNSPLPRVRRAIHFIPLLAGLGILAGTGTGIAGITKASLTYSQLSKEIANNIDTMAKALTTMQEQIDSLAAVVLQNRRGLDMLTAAQGGICLALDEKCCFWVNQSGKVQDNIRQLLNQASSLRERATQGWLNWEGTWKWFSWVLPLTGPLVSLLLLLLFGPCLLNLITQFVSSRLQAIKLQTNLSAGRHPRNIQESPF",fold-change in infectivity (luciferase) of Syn-2-pseudotyped viruses on HUVEC cells with 4 µM Gal-1 against virus only; inhibited by 50 mM lactose,[2],33.4 fold
same,fold-change in infectivity (luciferase) of Syn-2-pseudotyped viruses on Jurkat cells with 4 µM Gal-1 against virus only; inhibited by 50 mM lactose,[2],14.1 fold
same,fold-change in infectivity (luciferase) of Syn-2-pseudotyped viruses on U87-MG cells with 4 µM Gal-1 against virus only; inhibited by 50 mM lactose,[2],6.76 fold
same,fold-change in infectivity (luciferase) of Syn-2-pseudotyped viruses on HEK293T cells with 4 µM Gal-1 against virus only; abolished by 50 mM lactose,[3],5.51 fold
same,fold-change in infectivity (luciferase) of Syn-2-pseudotyped viruses on Cos-7 cells with 4 µM Gal-1 against virus only; abolished by 50 mM lactose,[4],6.93 fold
same,fold-change in infectivity (luciferase) of Syn-2-pseudotyped viruses on N227Q-MFSD2a-transfected HeLa cells with Gal-1 against control; counteracted by lactose,[5],10.2 fold
same,fold-change in infectivity (luciferase) of Syn-2-pseudotyped viruses on N217Q-MFSD2a-transfected HeLa cells with Gal-1 against control; counteracted by lactose,[6],10.8 fold
MFSD2a: N217Q (protein) parent chain: MAKGEGAESGSAAGLLPTSILQSTERPAQVKKEPKKKKQQLSVCNKLCYALGGAPYQVTGCALGFFLQIYLLDVAQVGPFSASIILFVGRAWDAITDPLVGLCISKSPWTCLGRLMPWIIFSTPLAVIAYFLIWFVPDFPHGQTYWYLLFYCLFETMVTCFHVPYSALTMFISTEQTERDSATAYRMTVEVLGTVLGTAIQGQIVGQADTPCFQDLNSSTVASQSANHTHGTTSHRETQKAYLLAAGVIVCIYIICAVILILGVREQREPYEAQQSEPIAYFRGLRLVMSHGPYIKLITGFLFTSLAFMLVEGNFVLFCTYTLGFRNEFQNLLLAIMLSATLTIPIWQWFLTRFGKKTAVYVGISSAVPFLILVALMESNLIITYAVAVAAGISVAAAFLLPWSMLPDVIDDFHLKQPHFHGTEPIFFSFYVFFTKFASGVSLGISTLSLDFAGYQTRGCSQPERVKFTLNMLVTMAPIVLILLGLLLFKMYPIDEERRRQNKKALQALRDEASSSGCSETDSTELASIL,"other: galectin-1 enhancement of Syn-2 pseudovirus infectivity, fold_change",[7],"no change, 10.8-fold +/− 3.96 vs 9.3 +/− 1.52"
same,expression_or_secretion,[8],no change
same,localisation_or_trafficking,[9],no change
MFSD2a: N227Q (protein) parent chain: MAKGEGAESGSAAGLLPTSILQSTERPAQVKKEPKKKKQQLSVCNKLCYALGGAPYQVTGCALGFFLQIYLLDVAQVGPFSASIILFVGRAWDAITDPLVGLCISKSPWTCLGRLMPWIIFSTPLAVIAYFLIWFVPDFPHGQTYWYLLFYCLFETMVTCFHVPYSALTMFISTEQTERDSATAYRMTVEVLGTVLGTAIQGQIVGQADTPCFQDLNSSTVASQSANHTHGTTSHRETQKAYLLAAGVIVCIYIICAVILILGVREQREPYEAQQSEPIAYFRGLRLVMSHGPYIKLITGFLFTSLAFMLVEGNFVLFCTYTLGFRNEFQNLLLAIMLSATLTIPIWQWFLTRFGKKTAVYVGISSAVPFLILVALMESNLIITYAVAVAAGISVAAAFLLPWSMLPDVIDDFHLKQPHFHGTEPIFFSFYVFFTKFASGVSLGISTLSLDFAGYQTRGCSQPERVKFTLNMLVTMAPIVLILLGLLLFKMYPIDEERRRQNKKALQALRDEASSSGCSETDSTELASIL,"other: galectin-1 enhancement of Syn-2 pseudovirus infectivity, fold_change",[7],"no change, 10.2-fold +/− 4.75 vs 9.3 +/− 1.52"
same,expression_or_secretion,[8],no change
same,localisation_or_trafficking,[9],no change
MFSD2a: double mutant (protein) parent chain: MAKGEGAESGSAAGLLPTSILQSTERPAQVKKEPKKKKQQLSVCNKLCYALGGAPYQVTGCALGFFLQIYLLDVAQVGPFSASIILFVGRAWDAITDPLVGLCISKSPWTCLGRLMPWIIFSTPLAVIAYFLIWFVPDFPHGQTYWYLLFYCLFETMVTCFHVPYSALTMFISTEQTERDSATAYRMTVEVLGTVLGTAIQGQIVGQADTPCFQDLNSSTVASQSANHTHGTTSHRETQKAYLLAAGVIVCIYIICAVILILGVREQREPYEAQQSEPIAYFRGLRLVMSHGPYIKLITGFLFTSLAFMLVEGNFVLFCTYTLGFRNEFQNLLLAIMLSATLTIPIWQWFLTRFGKKTAVYVGISSAVPFLILVALMESNLIITYAVAVAAGISVAAAFLLPWSMLPDVIDDFHLKQPHFHGTEPIFFSFYVFFTKFASGVSLGISTLSLDFAGYQTRGCSQPERVKFTLNMLVTMAPIVLILLGLLLFKMYPIDEERRRQNKKALQALRDEASSSGCSETDSTELASIL,expression_or_secretion,[8],decreases
